In IntAct's records for PubMed 27153538:

B1: TP53-binding protein 1 (Homo sapiens), Q12888 (parent)
chain: MDPTGSQLDSDFSQQDTPCLIIEDSQPESQVLEDDSGSHFSMLSRHLPNLQTHKENPVLDVVSNPEQTAGEERGDGNSGFNEHLKENKVADPVDSSNLDTCGSISQVIEQLPQPNRTSSVLGMSVESAPAVEEEKGEELEQKEKEKEEDTSGNTTHSLGAEDTASSQLGFGVLELSQSQDVEENTVPYEVDKEQLQSVTTNSGYTRLSDVDANTAIKHEEQSNEDIPIAEQSSKDIPVTAQPSKDVHVVKEQNPPPARSEDMPFSPKASVAAMEAKEQLSAQELMESGLQIQKSPEPEVLSTQEDLFDQSNKTVSSDGCSTPSREEGGCSLASTPATTLHLLQLSGQRSLVQDSLSTNSSDLVAPSPDAFRSTPFIVPSSPTEQEGRQDKPMDTSVLSEEGGEPFQKKLQSGEPVELENPPLLPESTVSPQASTPISQSTPVFPPGSLPIPSQPQFSHDIFIPSPSLEEQSNDGKKDGDMHSSSLTVECSKTSEIEPKNSPEDLGLSLTGDSCKLMLSTSEYSQSPKMESLSSHRIDEDGENTQIEDTEPMSPVLNSKFVPAENDSILMNPAQDGEVQLSQNDDKTKGDDTDTRDDISILATGCKGREETVAEDVCIDLTCDSGSQAVPSPATRSEALSSVLDQEEAMEIKEHHPEEGSSGSEVEEIPETPCESQGEELKEENMESVPLHLSLTETQSQGLCLQKEMPKKECSEAMEVETSVISIDSPQKLAILDQELEHKEQEAWEEATSEDSSVVIVDVKEPSPRVDVSCEPLEGVEKCSDSQSWEDIAPEIEPCAENRLDTKEEKSVEYEGDLKSGTAETEPVEQDSSQPSLPLVRADDPLRLDQELQQPQTQEKTSNSLTEDSKMANAKQLSSDAEAQKLGKPSAHASQSFCESSSETPFHFTLPKEGDIIPPLTGATPPLIGHLKLEPKRHSTPIGISNYPESTIATSDVMSESMVETHDPILGSGKGDSGAAPDVDDKLCLRMKLVSPETEASEESLQFNLEKPATGERKNGSTAVAESVASPQKTMSVLSCICEARQENEARSEDPPTTPIRGNLLHFPSSQGEEEKEKLEGDHTIRQSQQPMKPISPVKDPVSPASQKMVIQGPSSPQGEAMVTDVLEDQKEGRSTNKENPSKALIERPSQNNIGIQTMECSLRVPETVSAATQTIKNVCEQGTSTVDQNFGKQDATVQTERGSGEKPVSAPGDDTESLHSQGEEEFDMPQPPHGHVLHRHMRTIREVRTLVTRVITDVYYVDGTEVERKVTEETEEPIVECQECETEVSPSQTGGSSGDLGDISSFSSKASSLHRTSSGTSLSAMHSSGSSGKGAGPLRGKTSGTEPADFALPSSRGGPGKLSPRKGVSQTGTPVCEEDGDAGLGIRQGGKAPVTPRGRGRRGRPPSRTTGTRETAVPGPLGIEDISPNLSPDDKSFSRVVPRVPDSTRRTDVGAGALRRSDSPEIPFQAAAGPSDGLDASSPGNSFVGLRVVAKWSSNGYFYSGKITRDVGAGKYKLLFDDGYECDVLGKDILLCDPIPLDTEVTALSEDEYFSAGVVKGHRKESGELYYSIEKEGQRKWYKRMAVILSLEQGNRLREQYGLGPYEAVTPLTKAADISLDNLVEGKRKRRSNVSSPATPTASSSSSTTPTRKITESPRASMGVLSGKRKLITSEEERSPAKRGRKSATVKPGAVGAGEFVSPCESGDNTGEPSALEEQRGPLPLNKTLFLGYAFLLTMATTSDKLASRSKLPDGPTGSSEEEEEFLEIPPFNKQYTESQLRAGAGYILEDFNEAQCNTAYQCLLIADQHCRTRKYFLCLASGIPCVSHVWVHDSCHANQLQNYRNYLLPAGYSLEEQRILDWQPRENPFQNLKVLLVSDQQQNFLELWSEILMTGGAASVKQHHSSAHNKDIALGVFDVVVTDPSCPASVLKCAEALQLPVVSQEWVIQCLIVGERIGFKQHPKYKHDYVSH

Variants of: B1
Details: with h4_human H4C16, P62805

Row | effect of a mutation on the interaction | Variant
1 | disrupting interaction strength | D1521R
